In patent US20240117325:

Target: β-lactoglobulin

Protein	allergenic protein degradation rate	allergenic protein residual rate	reductase activity (AMS labelling, SDS-PAGE)
fusion protein of ferredoxin-thioredoxin reductase (FTRB/FTRA2) and thioredoxin Y2 fused via linker peptide (GGGGS)3 of 15 amino acid residues (protein) chain 1: AKTEPSEKSVEIMRKFSEQYARRSGTYFCVDKGVTSVVIKGLAEHKDSYGAPLCPCRHYDDKAAEVGQGFWNCPCVPMRERKECHCMLFLTPDNDFAGKDQTITSDEIKETTANMGGGGSGGGGSGGGGSAAKKQTFNSFDDLLQNSDKPVLVDFYATWCGPCQLMVPILNEVSETLKDIIAVVKIDTEKYPSLANKYQIEALPTFILFKDGKLWDRFEGALPANQLVERIENSLQVKQ chain 2: DIAVKSAASVDADADLSSSTSLETEEDEKAKEKIGARVRVTVPLKVYHVVRVPEVELMGMEGFIKDYVVLWKGKKISANLPFKVQFVKEIEGRGPVKFFTHLKEDEFELIDPHHHHHH	the degradation rate was 56%	the allergenic protein residual rate was 44%	The reduced form of the allergenic protein was detected in all of (b) to (d) in FIG. 11, confirming reductase activity
fusion protein of ferredoxin-thioredoxin reductase (FTRB/FTRA2) and thioredoxin Y2 fused via linker peptide (GGGGS)1 of 5 amino acid residues (protein) chain 1: AKTEPSEKSVEIMRKFSEQYARRSGTYFCVDKGVTSVVIKGLAEHKDSYGAPLCPCRHYDDKAAEVGQGFWNCPCVPMRERKECHCMLFLTPDNDFAGKDQTITSDEIKETTANMGGGGSAAKKQTFNSFDDLLQNSDKPVLVDFYATWCGPCQLMVPILNEVSETLKDIIAVVKIDTEKYPSLANKYQIEALPTFILFKDGKLWDRFEGALPANQLVERIENSLQVKQ chain 2: DIAVKSAASVDADADLSSSTSLETEEDEKAKEKIGARVRVTVPLKVYHVVRVPEVELMGMEGFIKDYVVLWKGKKISANLPFKVQFVKEIEGRGPVKFFTHLKEDEFELIDPHHHHHH	the degradation rate was 29%	the allergenic protein residual rate was 71%	The reduced form of the allergenic protein was detected in all of (b) to (d) in FIG. 11, confirming reductase activity
fusion protein of ferredoxin-thioredoxin reductase (FTRB/FTRA2) and thioredoxin Y2 fused via linker peptide (GGGGS)2 of 10 amino acid residues (protein) chain 1: AKTEPSEKSVEIMRKFSEQYARRSGTYFCVDKGVTSVVIKGLAEHKDSYGAPLCPCRHYDDKAAEVGQGFWNCPCVPMRERKECHCMLFLTPDNDFAGKDQTITSDEIKETTANMGGGGSGGGGSAAKKQTFNSFDDLLQNSDKPVLVDFYATWCGPCQLMVPILNEVSETLKDIIAVVKIDTEKYPSLANKYQIEALPTFILFKDGKLWDRFEGALPANQLVERIENSLQVKQ chain 2: DIAVKSAASVDADADLSSSTSLETEEDEKAKEKIGARVRVTVPLKVYHVVRVPEVELMGMEGFIKDYVVLWKGKKISANLPFKVQFVKEIEGRGPVKFFTHLKEDEFELIDPHHHHHH	the degradation rate was 58%	the allergenic protein residual rate was 42%	The reduced form of the allergenic protein was detected in all of (b) to (d) in FIG. 11, confirming reductase activity
